# According to patent US20090131317A1, “COMPOUNDS AND PEPTIDES THAT BIND THE TRAIL RECEPTOR” (AFFYMAX, INC., priority 2007, published 2009):
# “And” between values parts separate entries of the source, which are not always exact repeats. Equal entries are not always repeated. Numbered stars: 1 amine (or outer) side, 2 acyl side, 3 side chain; on linkers, the order of the positions; unused ones are H or OH. Bridge positions count the residues as written; N and C are the ends. Peptide text beside a SMILES is read from it. I, II: the chains in the order shown. Diglycolyl = O=C(COCC(=O)[*:2])[*:1]; DIG = diglycolic acid linker
# Target: TRAIL R2 receptor on HCT-116 or Jurkat cells (UniProt O14763 56-440, limits assumed)
# Experiment: cell-based or functional assay
# Conditions: not given
Molecule,"EC50, apoptotic activity in HCT-116 proliferation assay (MTT)","EC50, Jurkat proliferation assay (apoptosis, MTT)"
"Ac-WDCLDNRIGRRQCVK(DIG)L-NH2 (disulfide 3-13; also: homodimer joined through DIG linker) [peptide homodimer based on the monomer amino acid sequence of SEQ ID NO: 19, DIG linker]",~1620 nM,–
"Ac-WDCLVDRPGRRQCVRLEK-NH2 (disulfide 3-13 (inferred); also: homodimer via diglycolic acid (DIG) linker, site not given here) [peptide homodimer based on the peptide monomer amino acid sequence of SEQ ID NO: 29, DIG linker]",–,1300 to 1660 nM
"Ac-WDCLVDRPGRRQCVRLERK-NH2 (disulfide 3-13 (inferred); also: homodimer via diglycolic acid (DIG) linker, site not given here) [peptide homodimer based on the peptide monomer amino acid sequence of SEQ ID NO: 30, DIG linker]",–,611 to 1090 nM
"Ac-WDCLVDRPGRRQCVKLER-NH2 (disulfide 3-13 (inferred); also: homodimer via diglycolic acid (DIG) linker, site not given here) [peptide homodimer based on the peptide monomer amino acid sequence of SEQ ID NO: 31, DIG linker]",–,> 33000 nM
"Ac-WDCLDNRIGRRQCVKL-NH2 (disulfide 3-13; also: homotrimer via TSAT linker, site not given here) [peptide homotrimer based on the peptide monomer sequence of SEQ ID NO: 19, TSAT linker]",~480 nM,–
"Ac-WDCLDNRIGRRQCVKL-NH2 (disulfide 3-13; also: homodimer via IPA linker, site not given here) [peptide homodimer based on the peptide monomer amino acid sequence of SEQ ID NO: 19, IPA linker]",–,1400 to 4020 nM
"Ac-WDCLDNRIGRRQCVKL-NH2 (disulfide 3-13; also: homodimer via DOD linker, site not given here) [peptide homodimer based on the peptide monomer amino acid sequence of SEQ ID NO: 19, DOD linker]",–,2000 to 4410 nM

# Target: T1, human TRAIL R2 (Homo sapiens, UniProt O14763)
# T1 construct: purchased R&D Systems, Minneapolis, Minn
# Experiment: AlphaQuest TRAIL R2 receptor binding competition assay (AlphaScreen, biotinylated TRAIL ligand vs TRAIL R2-Fc)
# Conditions: competition with biotinylated TRAIL ligand; single values and ranges over assays; read-out: binding activity (IC50)
# Excerpt: Laser excitation (680 nm) of a photosensitizer in the donor bead generates singlet state oxygen molecules, which react with a chemiluminescer in the acceptor bead to generate a detectable light signal (520-620 nm). Because the singlet O2 molecules have an extremely short half-life (i.e., t ½), a signal is generated only when the donor and acceptor beads are brought into close proximity, by TRAIL binding to the R2 receptor. The presence of unlabeled test peptide that competes with TRAIL for binding to the R2 receptor will prevent this binding, resulting in a measurable decrease in light emission.
# Recombinant human TRAIL R2-Fc fusion protein (R&D Systems, Minneapolis, Minn.) is diluted in AlphaQuest® buffer to a concentration of 600 pM, pre-mixed with 1.9 μL Protein A-coated acceptor beads and 1.9 μL streptavidin-coated donor beads (Perkin-Elmer®, Waltham, Mass.), then 2 μL is added to each well of the assay plate. […] The plates are sealed with adhesive sealing film and covered with aluminum foil, centrifuged at 600 rpm for 30 seconds and incubated overnight in the dark. […] The raw data are analyzed using GraphPad Prism® software (La Jolla, Calif.) to calculate IC50 values from a 4-parameter logistic equation.
row,Molecule,IC50
1,CC[C@H](C)[C@@H]1NC(=O)[C@H](CCCNC(=N)N)NC(=O)[C@H](CC(N)=O)NC(=O)[C@H](CC(=O)O)NC(=O)[C@H](CC(C)C)NC(=O)[C@@H](NC(=O)[C@H](CC(=O)O)NC(=O)[C@H](Cc2c[nH]c3ccccc23)NC(C)=O)CSSC[C@@H](C(=O)N[C@H](C(=O)N[C@@H](CCCNC(=N)N)C(N)=O)C(C)C)NC(=O)[C@H](CCC(N)=O)NC(=O)[C@H](CCCNC(=N)N)NC(=O)[C@H](CCCCN)NC(=O)CNC1=O [SEQ ID NO: 33 monomer] (Ac-WDCLDNRIGKRQCVR-NH2; disulfide 3-13),200 to 5700 nM
2,CC(=O)N[C@@H](Cc1c[nH]c2ccccc12)C(=O)N[C@@H](CC(=O)O)C(=O)N[C@H]1CSSC[C@@H](C(=O)N[C@H](C(=O)N[C@@H](CCCCN)C(N)=O)C(C)C)NC(=O)[C@H](CCC(N)=O)NC(=O)[C@H](CCCNC(=N)N)NC(=O)[C@H](CCCNC(=N)N)NC(=O)CNC(=O)[C@@H]2CCCN2C(=O)[C@H](CCCNC(=N)N)NC(=O)[C@H](CC(=O)O)NC(=O)[C@H](CC(C)C)NC1=O [SEQ ID NO: 22 monomer] (Ac-WDCLDRPGRRQCVK-NH2; disulfide 3-12),3550 to 10700 nM
3,"CC[C@H](C)[C@@H]1NC(=O)[C@H](CCCNC(=N)N)NC(=O)[C@H](CC(N)=O)NC(=O)[C@H](CC(=O)O)NC(=O)[C@H](CC(C)C)NC(=O)[C@@H](NC(=O)[C@H](CC(=O)O)NC(=O)[C@H](Cc2c[nH]c3ccccc23)NC(C)=O)CSSC[C@@H](C(=O)N[C@H](C(=O)N[C@@H](CCCNC(=N)N)C(N)=O)C(C)C)NC(=O)[C@H](CCC(N)=O)NC(=O)[C@H](CCCNC(=N)N)NC(=O)[C@H](CCCCNC(=O)COCC(=O)NCCCC[C@@H]2NC(=O)CNC(=O)[C@H]([C@@H](C)CC)NC(=O)[C@H](CCCNC(=N)N)NC(=O)[C@H](CC(N)=O)NC(=O)[C@H](CC(=O)O)NC(=O)[C@H](CC(C)C)NC(=O)[C@@H](NC(=O)[C@H](CC(=O)O)NC(=O)[C@H](Cc3c[nH]c4ccccc34)NC(C)=O)CSSC[C@@H](C(=O)N[C@H](C(=O)N[C@@H](CCCNC(=N)N)C(N)=O)C(C)C)NC(=O)[C@H](CCC(N)=O)NC(=O)[C@H](CCCNC(=N)N)NC2=O)NC(=O)CNC1=O [SEQ ID NO: 33 homodimer] (I: Ac-WDCLDNRIGKRQCVR-NH2 / II: Ac-WDCLDNRIGKRQCVR-NH2; disulfide I:3-I:13, II:3-II:13; linker I:10-II:10 via Diglycolyl)",0.025 to 0.092 nM and ~0.061 nM
4,CC[C@H](C)[C@@H]1NC(=O)[C@H](CCCNC(=N)N)NC(=O)[C@H](CC(N)=O)NC(=O)[C@H](CC(=O)O)NC(=O)[C@H](CC(C)C)NC(=O)[C@@H](NC(=O)[C@H](CC(=O)O)NC(C)=O)CSSC[C@@H](C(=O)N[C@H](C(=O)N[C@@H](CCCCN)C(=O)N[C@@H](CC(C)C)C(N)=O)C(C)C)NC(=O)[C@H](CCC(N)=O)NC(=O)[C@H](CCCNC(=N)N)NC(=O)[C@H](CCCNC(=N)N)NC(=O)CNC1=O [SEQ ID NO: 25 monomer] (Ac-DCLDNRIGRRQCVKL-NH2; disulfide 2-12),≥ 100000 nM

# System: Jurkat cells
# Experiment: not given
# Type: cell-based
# Conditions: not given
# Description: The apoptotic activity of test peptides is measured using a Jurkat proliferation assay.
# Jurkat cells are obtained from the American Type Culture Collection (ATCC, Manassas, Va.) and are maintained in RPMI-1640 medium supplemented with 10% FBS, 100 U/mL penicillin, and 100 […] (Growth Medium). […] Cells are resuspended at a density of 1×10^6 cells/mL in Growth Medium, and 50 μl cells is added to each well of the assay plates. The plates are incubated in a 37° C., 5% CO2 incubator for 24-48 hours. Proliferation is assessed by adding 10 μL of MTT stock solution (ATCC, Manassas, Va.) to the wells. The plates are incubated in a 37° C., 5% CO2 incubator for another 2-4 hours, followed by the addition of 100 μL of 20% SDS with 0.01 N HCl. After incubation overnight in a 37° C., 5% CO2 incubator, the plates are quantified by reading the optical density at a wavelength of 595 nm (OD595) in a SpectraMax® M5 microplate reader (Molecular Devices, Sunnyvale, Calif.). The data are analyzed using GraphPad Prism® software (La Jolla, Calif.) to calculate IC50 values from a 4-parameter logistic equation.
row,Molecule,EC50
1,"CC(=O)N[C@@H](Cc1c[nH]c2ccccc12)C(=O)N[C@@H](CC(=O)O)C(=O)N[C@H]1CSSC[C@@H](C(=O)N[C@H](C(=O)N[C@@H](CCCNC(=N)N)C(=O)N[C@@H](CC(C)C)C(=O)N[C@@H](CCC(=O)O)C(=O)N[C@@H](CCCCNC(=O)COCC(=O)NCCCC[C@H](NC(=O)[C@H](CCC(=O)O)NC(=O)[C@H](CC(C)C)NC(=O)[C@H](CCCNC(=N)N)NC(=O)[C@@H](NC(=O)[C@@H]2CSSC[C@H](NC(=O)[C@H](CC(=O)O)NC(=O)[C@H](Cc3c[nH]c4ccccc34)NC(C)=O)C(=O)N[C@@H](CC(C)C)C(=O)N[C@@H](C(C)C)C(=O)N[C@@H](CC(=O)O)C(=O)N[C@@H](CCCNC(=N)N)C(=O)N3CCC[C@H]3C(=O)NCC(=O)N[C@@H](CCCNC(=N)N)C(=O)N[C@@H](CCCNC(=N)N)C(=O)N[C@@H](CCC(N)=O)C(=O)N2)C(C)C)C(N)=O)C(N)=O)C(C)C)NC(=O)[C@H](CCC(N)=O)NC(=O)[C@H](CCCNC(=N)N)NC(=O)[C@H](CCCNC(=N)N)NC(=O)CNC(=O)[C@@H]2CCCN2C(=O)[C@H](CCCNC(=N)N)NC(=O)[C@H](CC(=O)O)NC(=O)[C@H](C(C)C)NC(=O)[C@H](CC(C)C)NC1=O [SEQ ID NO: 29 homodimer] (I: Ac-WDCLVDRPGRRQCVRLEK-NH2 / II: Ac-WDCLVDRPGRRQCVRLEK-NH2; disulfide I:3-I:13, II:3-II:13 (inferred); linker I:18-II:18 via Diglycolyl (inferred))",1300 to 1660 nM

# Target: T2, Recombinant human TRAIL R2-Fc fusion protein (R&D Systems) (human, UniProt O14763 52-182, limits assumed)
# T2 construct: Bought from R&D Systems; held on protein A-coated acceptor beads in the AlphaQuest/AlphaScreen assay; also called TRAIL R2 receptor; R2 receptor; not shown: Fc part of the bought fusion protein
# Experiment: AlphaQuest competition: displaces biotinylated TRAIL ligand from human TRAIL R2-Fc
# Conditions: not given
# Description: The plates are sealed with adhesive sealing film and covered with aluminum foil, centrifuged at 600 rpm for 30 seconds and incubated overnight in the dark. […] The raw data are analyzed using GraphPad Prism® software (La Jolla, Calif.) to calculate IC₅₀ values from a 4-parameter logistic equation.
row,Molecule,IC50
1,Ac-GGSWDCLDNRIGRRQCVKL-NH2 (disulfide 6-16 (inferred)) [peptide monomer based on the amino acid sequence of SEQ ID NO: 20],~303 nM
2,Ac-DCLDNRIGRRQCVKL-NH2 (disulfide 2-12 (inferred)) [peptide monomer based on the amino acid sequence of SEQ ID NO: 25],≥ 100000 nM
3,Ac-WDCLDNRIGRRQCVK-NH2 (disulfide 3-13 (inferred)) [peptide monomer based on the amino acid sequence of SEQ ID NO: 28],~80 nM
4,"Ac-WDCLDRPGRRQCVK-NH2 (disulfide 3-12 (inferred); also: homodimer via diglycolic acid (DIG) linker, site not given here) [peptide homodimer based on the monomer amino acid sequence of SEQ ID NO: 22, DIG linker]",6.2 nM
5,"Ac-WDCLDRPGRRQCVK-NH2 (disulfide 3-12 (inferred); also: DIG linker moiety conjugated, site not given here) [peptide monomer based on the amino acid sequence of SEQ ID NO: 22 conjugated to a DIG linker moiety]",1200 to 2300 nM
